# Tests used:
# Assay in all cases: cross-linking
# [1] = biological target: Sir3 winged helix deletion (Sir3 1-850) (S. cerevisiae, UniProt P06701 1-850)
# cross-linking = biological target: the molecule itself
# [2] = biological target: Sir2 (untagged final), full-length (S. cerevisiae, UniProt P06700 1-562)
# Sequence of Sir2 (untagged final), full-length (P06700 whole entry): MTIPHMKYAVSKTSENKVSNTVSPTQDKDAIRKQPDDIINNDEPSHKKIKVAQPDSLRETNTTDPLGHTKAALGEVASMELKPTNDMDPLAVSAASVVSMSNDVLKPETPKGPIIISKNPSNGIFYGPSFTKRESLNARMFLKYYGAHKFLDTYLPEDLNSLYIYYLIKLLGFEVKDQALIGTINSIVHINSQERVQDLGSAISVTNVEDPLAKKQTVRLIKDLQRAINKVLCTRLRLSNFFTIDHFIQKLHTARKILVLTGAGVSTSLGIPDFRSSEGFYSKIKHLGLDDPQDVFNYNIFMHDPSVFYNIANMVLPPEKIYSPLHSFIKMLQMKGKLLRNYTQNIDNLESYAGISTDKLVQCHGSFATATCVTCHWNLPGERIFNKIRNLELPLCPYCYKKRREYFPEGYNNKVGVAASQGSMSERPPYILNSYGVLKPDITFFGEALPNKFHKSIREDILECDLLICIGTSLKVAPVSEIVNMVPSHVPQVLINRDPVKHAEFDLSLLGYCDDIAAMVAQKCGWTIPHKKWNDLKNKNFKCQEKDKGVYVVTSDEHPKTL
# Sequence of Sir3 winged helix deletion (Sir3 1-850) (P06701 1-850, stated change not applied): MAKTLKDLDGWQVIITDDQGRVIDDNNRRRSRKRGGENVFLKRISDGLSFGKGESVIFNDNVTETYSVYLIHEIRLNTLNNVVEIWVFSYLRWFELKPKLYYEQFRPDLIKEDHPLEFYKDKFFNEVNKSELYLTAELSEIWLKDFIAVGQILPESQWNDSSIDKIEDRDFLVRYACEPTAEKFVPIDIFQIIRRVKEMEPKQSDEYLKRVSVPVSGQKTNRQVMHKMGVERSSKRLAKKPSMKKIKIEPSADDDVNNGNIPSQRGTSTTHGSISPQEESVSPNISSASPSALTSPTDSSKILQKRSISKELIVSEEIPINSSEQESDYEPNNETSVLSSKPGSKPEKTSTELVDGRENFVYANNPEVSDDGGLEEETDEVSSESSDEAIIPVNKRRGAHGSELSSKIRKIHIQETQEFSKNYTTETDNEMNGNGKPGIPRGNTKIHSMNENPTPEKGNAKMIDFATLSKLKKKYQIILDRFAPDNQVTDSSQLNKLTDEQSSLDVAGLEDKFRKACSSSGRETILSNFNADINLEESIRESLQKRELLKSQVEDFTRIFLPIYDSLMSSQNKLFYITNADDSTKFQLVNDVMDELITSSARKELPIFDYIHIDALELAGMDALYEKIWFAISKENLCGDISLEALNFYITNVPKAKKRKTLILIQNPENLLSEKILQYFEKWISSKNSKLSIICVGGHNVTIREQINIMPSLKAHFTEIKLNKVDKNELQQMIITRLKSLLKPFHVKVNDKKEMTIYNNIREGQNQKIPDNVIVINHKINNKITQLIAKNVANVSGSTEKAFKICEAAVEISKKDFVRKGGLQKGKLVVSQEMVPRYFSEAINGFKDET
binding result [1],binding result [2],Binder,binding result (cross-linking)
binds,–,"MBP-Sir4(744-1358) (domain or fragment, S. cerevisiae, UniProt P11978 744-1358, looked up) PGKMELVYVSDSDDSSSDNDSLTDLESLSSGESNEIKVTNDLDTSAEKDQIQAGKWFDPVLDWRKSDRELTKNILWRIADKTTYDKETITDLIEQGIPKHSYLSGNPLTSVTNDICSVENYETSSAFFYQQVHKKDRLQYLPLYAVSTFENTNNTEKNDVTNKNINIGKHSQEQNSSSAKPSQIPTVSSPLGFEETKLSTTPTKSNRRVSHSDTNSSKPKNTKENLSKSSWRQEWLANLKLISVSLVDEFPSELSDSDRQIINEKMQLLKDIFANNLKSAISNNFRESDIIILKGEIEDYPMSSEIKIYYNELQNKPDAKKARFWSFMKTQRFVSNMGFDIQKSCEPVSISTSVKPHVVEPEHMADAKIMPKDILQITKKPLMVKNVKPSSPPDVKSLVQLSTMETKTLPEKKQFDSIFNSNKAKIIPGNGKHASENISLSFSRPASYGYFSVGKRVPIVEDRRVKQLDDITDSNTTEILTSVDVLGTHSQTGTQQSNMYTSTQKTELEIDNKDSVTECSKDMKEDGLSFVDIVLSKAASALDEKEKQLAVANEIIRSLSDEVMRNEIRITSLQGDLTFTKKCLENARSQISEKDAKINKLMEKDFQVNKEIKPY",binds
–,binds,"MBP-Sir4(1150-1358) (domain or fragment, S. cerevisiae, UniProt P11978 1150-1358, looked up) KTLPEKKQFDSIFNSNKAKIIPGNGKHASENISLSFSRPASYGYFSVGKRVPIVEDRRVKQLDDITDSNTTEILTSVDVLGTHSQTGTQQSNMYTSTQKTELEIDNKDSVTECSKDMKEDGLSFVDIVLSKAASALDEKEKQLAVANEIIRSLSDEVMRNEIRITSLQGDLTFTKKCLENARSQISEKDAKINKLMEKDFQVNKEIKPY",–
